Measured values reported in paper PMC9233197, “Neuropeptide signalling shapes feeding and reproductive behaviours in male Caenorhabditis elegans” (Life Science Alliance, 2022).
No end group written: not given here.

Target: T1, NPR-22 (Caenorhabditis elegans, UniProt Q59E83)
T1 construct: host or cells: CHO-K1 cells (CHO/mtAEQ/Gα16) transiently transfected with NPR-22 cDNA in pcDNA3.1 TOPO
T1 sequence (Q59E83 1-434): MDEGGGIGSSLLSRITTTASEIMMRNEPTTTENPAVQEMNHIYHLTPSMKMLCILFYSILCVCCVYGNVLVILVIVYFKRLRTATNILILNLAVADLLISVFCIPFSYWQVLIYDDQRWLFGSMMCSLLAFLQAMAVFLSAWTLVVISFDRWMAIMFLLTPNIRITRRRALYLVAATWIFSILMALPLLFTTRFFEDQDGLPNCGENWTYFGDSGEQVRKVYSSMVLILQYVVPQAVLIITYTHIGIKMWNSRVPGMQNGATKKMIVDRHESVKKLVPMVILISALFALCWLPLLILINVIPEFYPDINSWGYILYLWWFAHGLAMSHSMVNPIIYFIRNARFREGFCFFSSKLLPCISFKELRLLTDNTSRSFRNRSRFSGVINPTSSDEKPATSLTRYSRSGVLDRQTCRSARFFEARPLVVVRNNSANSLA
Assay: In vitro GPCR activation assay (aequorin bioluminescence, CHO/mtAEQ/Gα16 cells transfected with NPR-22)
Assay type: cell-based
Settings: dose–response, n = 6–8 trials
From the text: Figure 1. Neuropeptide lury-1 and its receptor npr-22 are expressed in different cells in the two sexes of C. elegans. […] In males, there is additional expression in cells in the tail (white arrows). Dashed outlines indicate worm body and position of pharyngeal bulbs in the head. Scale bar = 10 μm. (B) Identification of lury-1–expressing male tail neurons using NeuroPAL ([Tekieli et al, 2021]; [Yemini et al, 2021]). The lury-1 reporter line used here is JN2443 (Plury-1::Venus, unc-122p::mCherry). […] DX1–DX3 are annotated in the image. Nuclear fluorescence in other neurons is in pseudocolour as in [Yemini et al (2021)]. Scale bar = 10 μm. […] The corresponding EC50 values (M) for each peptide are as indicated. Line represents non-linear regression fit of a variable slope line using three parameters. n = 6–8 trials. […] Expression in male copulatory apparatus is also observed. Dashed outlines indicate worm body and position of pharyngeal bulbs in the head. Scale bar = 10 μm. […]
Cell-based activation assays were performed as described ([Beets et al, 2012]). […] Cells (25,000 cells/well) were exposed to synthetic peptides in BSA medium, and aequorin bioluminescence was recorded for 30 s on a MicroBeta LumiJet luminometer (PerkinElmer) in quadruplicate. […] EC50 values were calculated from dose–response curves, constructed using a nonlinear regression analysis, with sigmoidal dose–response equation (Prism 9.0).

activation of the receptor NPR-22 in vitro (in words)	Substance
activate the receptor NPR-22 in vitro	LURY-1-2: peptide encoded by the LURY-1 precursor (luqin RYamide) of C. elegans; synthetic peptide in the assay (AVLPRY; ends and bridges not checked; UniProt Q9XW71 38-43, looked up)
activate the receptor NPR-22 in vitro	LURY-1-1: peptide encoded by the LURY-1 precursor (luqin RYamide) of C. elegans; synthetic peptide in the assay (PALLSRY; ends and bridges not checked; UniProt Q9XW71 29-35, looked up)
